Assays:
[1] = target: T1, INC-N; test: Western blot of recombinant CPC domains, Fab as primary reagent, anti-human F(ab')2 IgG-HRP [panel B]
T1 construct: Specificity lane in the Western blots; also called INCENP-N (N-term); Inc: 1-58
T1 chain: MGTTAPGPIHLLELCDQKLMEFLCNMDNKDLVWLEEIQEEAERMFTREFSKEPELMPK
Protocol: (§1) Recombinant CPC targets Survivin-N(N-term), Borealin-N(N-term), Borealin-C(C-term) and INCENP-N(N-term) domains were run on SDS-PAGE and transferred into PVDF membrane. […] The assay was developed by using a secondary anti-human-F(ab′)2 IgG-HRP reagent
(§2) Membranes were stained with Ponceau S dye to verify correct transfer of the proteins, were briefly washed with ddH2O and blocked with 4% skimmed milk in TBS-T containing 0.05% Tween20 for 30 min. at RT on the shaker. Blocking solution was discarded and membranes were incubated with Borealin Fabs as primary detection reagents at concentration 5-10 µg/ml, in blocking buffer at 4 C O/N on the shaker. Membranes were washed 3 times with TBS-T and incubated with secondary anti-human FAB′2 specific HRP-conjugated IgG (diluted 1:10,000 in blocking buffer) for 45 minutes at RT, shaking. Membranes were washed again 3× with TBS-T, developed with ECL chemiluminescent substrate and visualized with the Biorad imaging instrument (FIG. 10).

[2] = target: T2, Sur-N; test: as above
T2 construct: Specificity lane in the Western blots; also called Survivin-N (N-term); Sur N: 1-120
T2 sequence (chain, as listed by the source limits assumed): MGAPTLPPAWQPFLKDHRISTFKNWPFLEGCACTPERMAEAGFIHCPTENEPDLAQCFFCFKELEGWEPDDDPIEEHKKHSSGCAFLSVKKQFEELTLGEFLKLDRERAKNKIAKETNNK
Protocol: as §1, §2

[3] = target: T3, Borealin N-terminal domain (20-88) (human, UniProt Q53HL2 20-88, biotinylated on the Avi-tag (co-expression with BirA)); test: as above
T3 construct: range 20-88; The construct carries His- and Avi-tags; Expressed in E. coli; Immobilised via neutravidin (ELISA) or His-tag/NTA chip (SPR); also called Bor-N
T3 sequence (looked up): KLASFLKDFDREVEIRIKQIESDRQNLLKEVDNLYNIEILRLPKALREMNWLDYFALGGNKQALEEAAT
Protocol: as §1, §2

[4] = target: T4, Borealin C-terminal domain (207-280) (human, UniProt Q53HL2 207-280, biotinylated on the Avi-tag (co-expression with BirA)); test: SPR, His-tagged target on NTA chip, 2-fold dilutions of the Fab injected, 1:1 Langmuir fit [panel B, top]
T4 construct: range 207-280; The construct carries His- and Avi-tags; Expressed in E. coli; Immobilised via neutravidin (ELISA) or His-tag/NTA chip (SPR); also called Bor-C
T4 sequence (looked up): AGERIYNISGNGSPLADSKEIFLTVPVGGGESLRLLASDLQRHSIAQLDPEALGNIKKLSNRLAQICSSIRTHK
Protocol: (§3) The targets were immobilized onto a nitrilotriacetic acid (NTA) sensor chip via His-tag. 2-fold serial dilutions of the Fab were injected following ligand immobilization on the sensor chip. For each kinetic assay at least five dilutions of the Fab were tested. The data were fitted using 1:1 Langmuir Model to obtain the on-rate, off-rate and the affinity (KD) of the Fab-target interaction.

[5] = target: T4, Borealin C-terminal domain (207-280); test: SPR, His-tagged target on NTA chip, 2-fold dilutions of the Fab injected, 1:1 Langmuir fit [panel B, middle]
Protocol: as §3

[6] = target: T4, Borealin C-terminal domain (207-280); test: SPR, His-tagged target on NTA chip, 2-fold dilutions of the Fab injected, 1:1 Langmuir fit [panel B, bottom]
Protocol: as §3

[7] = target: T3, Borealin N-terminal domain (20-88); test: single-point Fab ELISA, 50 nM biotinylated target on neutravidin, 200 nM Fab, protein L-HRP [panel A]
Protocol: (§4) To rapidly reconfirm the binding and specificity of the obtained Fabs after reformatting into the expression vectors single-point Fab ELISA was performed (FIG. 2). Briefly, 50 nM Avi-tagged targets were immobilized on the prepared NAV-coated and blocked with 0.5% BSA in PBS 96-well ELISA plates. The target coated plates were washed with appropriate buffer (TBST or PBST) and were incubated with 200 nM Fab for 20 minutes and then washed. The washed plates were incubated with protein L conjugated with HRP (1:5000 diluted in TBST) for 30 minutes. Plates were washed and the reaction was developed using the TMB chromogenic substrate (Thermofisher) and subsequently quenched with 1M HCl. Absorbance was read at 450 nm on Epoch plate reader.

[8] = target: T4, Borealin C-terminal domain (207-280); test: Western blot of recombinant CPC domains, Fab as primary reagent, anti-human F(ab')2 IgG-HRP [panel A]
Protocol: as §1, §2

[9] = target: T3, Borealin N-terminal domain (20-88); test: SPR, His-tagged target on NTA chip, 2-fold dilutions of the Fab injected, 1:1 Langmuir fit [panel A]
Protocol: as §3

[10] = target: T3, Borealin N-terminal domain (20-88); test: single-point Fab ELISA, 50 nM biotinylated target on neutravidin, protein L-HRP [panel A]
Protocol: as §4

[11] = target: T4, Borealin C-terminal domain (207-280); test: single-point Fab ELISA, 50 nM biotinylated target on neutravidin, protein L-HRP [panel B]
Protocol: as §4

B1: BOR-C-56 (Fab, V domains shown)
VH: EVQLVESGGGLVQPGGSLRLSCAASGFNISSSSIHWVRQAPGKGLEWVAYISSYSGSTYYADSVKGRFTISADTSKNTAYLQMNSLRAEDTAVYYCARYYHSPLWYYSYSGMDYWGQGTLVTVSS
VL: DIQMTQSPSSLSASVGDRVTITCRASQSVSSAVAWYQQKPGKAPKLLIYSASSLYSGVPSRFSGSRSGTDFTLTISSLQPEDFATYYCQQDYSWSPITFGQGTKVEIKR
notes: also called BOR-C-56 Fab
Question: What does the source list for B1?
Answer: binding result [1]: no binding (tested: 5-10 ug/ml (the text prints 'lg/ml')); binding result [2]: no binding (tested: 5-10 ug/ml (the text prints 'lg/ml')); binding result [3]: no binding (tested: 5-10 ug/ml (the text prints 'lg/ml')); Kd [4]: 11.6 nM

B2: BOR-C-61 (Fab, V domains shown)
VH: EVQLVESGGGLVQPGGSLRLSCAASGFNFYSSYIHWVRQAPGKGLEWVASISSSSGSTSYADSVKGRFTISADTSKNTAYLQMNSLRAEDTAVYYCARRSGGGLDYWGQGTLVTVSS
VL: DIQMTQSPSSLSASVGDRVTITCRASQSVSSAVAWYQQKPGKAPKLLIYSASSLYSGVPSRFSGSRSGTDFTLTISSLQPEDFATYYCQQSSSSLITFGQGTKVEIKR
notes: also called BOR-C-61 Fab
Question: For B2, which Kd [5] is on record?
Answer: 8.5 nM

B3: BOR-C-64 (Fab, V domains shown)
VH: EVQLVESGGGLVQPGGSLRLSCAASGFNVYYSSIHWVRQAPGKGLEWVASISSYYGSTYYADSVKGRFTISADTSKNTAYLQMNSLRAEDTAVYYCARWKWVAMDYWGQGTLVTVSS
VL: DIQMTQSPSSLSASVGDRVTITCRASQSVSSAVAWYQQKPGKAPKLLIYSASSLYSGVPSRFSGSRSGTDFTLTISSLQPEDFATYYCQQDLFMPITFGQGTKVEIKR
notes: also called BOR-C-64 Fab
Question: With B3 as the binder, how does the Kd [6] read?
Answer: 0.6 nM

B4: BOR-N-49 (Fab, V domains shown)
VH: EVQLVESGGGLVQPGGSLRLSCAASGFNVSSYSIHWVRQAPGKGLEWVASIYSSSSSTYYADSVKGRFTISADTSKNTAYLQMNSLRAEDTAVYYCARRYYHYRYPLFWGWYGMDYWGQGTLVTVSS
VL: DIQMTQSPSSLSASVGDRVTITCRASQSVSSAVAWYQQKPGKAPKLLIYSASSLYSGVPSRFSGSRSGTDFTLTISSLQPEDFATYYCQQSFWWPITFGQGTKVEIKR
notes: also called BOR-N-49 Fab
Question: Does B4 bind [7]?
Answer: binds

B5: BOR-N-50 (Fab, V domains shown)
VH: EVQLVESGGGLVQPGGSLRLSCAASGFNVYSYSIHWVRQAPGKGLEWVASIYSYSGYTYYADSVKGRFTISADTSKNTAYLQMNSLRAEDTAVYYCARSTYPHVYLYFGLDYWGQGTLVTVSS
VL: DIQMTQSPSSLSASVGDRVTITCRASQSVSSAVAWYQQKPGKAPKLLIYSASSLYSGVPSRFSGSRSGTDFTLTISSLQPEDFATYYCQQSYYWPVTFGQGTKVEIKR
notes: also called BOR-N-50 Fab
Question: Does B5 bind [7]?
Answer: binds

B6: BOR-N-51 (Fab, V domains shown)
VH: EVQLVESGGGLVQPGGSLRLSCAASGFNVYSYSIHWVRQAPGKGLEWVASIYSSYSYTSYADSVKGRFTISADTSKNTAYLQMNSLRAEDTAVYYCARKYHFKPTYWGAMDYWGQGTLVTVSS
VL: DIQMTQSPSSLSASVGDRVTITCRASQSVSSAVAWYQQKPGKAPKLLIYSASSLYSGVPSRFSGSRSGTDFTLTISSLQPEDFATYYCQQSSLYYPLTFGQGTKVEIKR
notes: also called BOR-N-51 Fab
Question: Does B6 bind [7]?
Answer: binds

B7: BOR-N-48 (Fab, V domains shown)
VH: EVQLVESGGGLVQPGGSLRLSCAASGFNFSYSSIHWVRQAPGKGLEWVASIYPYSGSTYYADSVKGRFTISADTSKNTAYLQMNSLRAEDTAVYYCARKQVSGWWWYYGFDYWGQGTLVTVSS
VL: DIQMTQSPSSLSASVGDRVTITCRASQSVSSAVAWYQQKPGKAPKLLIYSASSLYSGVPSRFSGSRSGTDFTLTISSLQPEDFATYYCQQSYWWPITFGQGTKVEIKR
notes: also called BOR-N-48 Fab
Question: Does B7 bind [8]?
Answer: no binding (tested: 5-10 ug/ml (the text prints 'lg/ml'))

Question: And the Kd [9]?
Answer: 0.4 nM

B8: BOR-N-65 (Fab, V domains shown)
VH: EVQLVESGGGLVQPGGSLRLSCAASGFNFSSSSIHWVRQAPGKGLEWVASISSSSGSTSYADSVKGRFTISADTSKNTAYLQMNSLRAEDTAVYYCARESSQTKKYWYWVVQWYTAMDYWGQGTLVTVSS
VL: DIQMTQSPSSLSASVGDRVTITCRASQSVSSAVAWYQQKPGKAPKLLIYSASSLYSGVPSRFSGSRSGTDFTLTISSLQPEDFATYYCQQYSQWLITFGQGTKVEIKR
notes: also called BOR-N-65 Fab
Question: Does B8 bind [10]?
Answer: no binding (tested: 200 nM)

B9: BOR-C-58 (Fab, V domains shown)
VH: EVQLVESGGGLVQPGGSLRLSCAASGFNVSSYSIHWVRQAPGKGLEWVASISPYYGYTSYADSVKGRFTISADTSKNTAYLQMNSLRAEDTAVYYCARHYYYGFSWFSSGYAMDYWGQGTLVTVSS
VL: DIQMTQSPSSLSASVGDRVTITCRASQSVSSAVAWYQQKPGKAPKLLIYSASSLYSGVPSRFSGSRSGTDFTLTISSLQPEDFATYYCQQGSSSPITFGQGTKVEIKR
notes: also called BOR-C-58 Fab
Question: Does B9 bind [11]?
Answer: no binding (tested: 200 nM)

Source: US20250127814A1 (UNIVERSITY OF CHICAGO, published 2025)
